Biological target: T1, monomeric head domain of HA from H1 A/Solomon Islands/03/2006 (Influenza A virus A/Solomon …)
T1 chain: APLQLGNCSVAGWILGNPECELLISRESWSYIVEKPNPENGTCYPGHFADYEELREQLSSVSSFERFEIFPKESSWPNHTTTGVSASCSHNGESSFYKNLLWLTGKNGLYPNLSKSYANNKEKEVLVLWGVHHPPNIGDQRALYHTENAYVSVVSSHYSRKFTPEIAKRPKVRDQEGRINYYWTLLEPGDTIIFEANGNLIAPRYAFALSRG
Test: BLI

B1: C05 IgG (anti-influenza human mAb C05) (antibody, V domains shown)
VH: QVQLQESGGGLVQPGESLRLSCVGSGSSFGESTLSYYAVSWVRQAPGKGLEWLSIINAGGGDIDYADSVEGRFTISRDNSKETLYLQMTNLRVEDTGVYYCAKHMSMQQVVSAGWERADLVGDAFDVWGQGTMVTVSS
VL: DIQLTQSPSSLSASVGDRVTLTCQASQDIRKFLNWYQQKPGKGPKLLIYDASNLQRGVPSRFSGGGSGTDFTLIISSLQPEDVGTYYCQQYDGLPFTFGGGTKVVIK
Kd: 88 nM

Source: publication PMC7544621 (Structure (London, England : 1993), 2020)
